# Data taken from patent EP2546652A1.
# What was measured:
# [1] = biological target: nervous necrosis virus (NNV) particles (nervous necrosis virus (from grouper)); assay: immunomagnetic reduction (IMR), anti-NNV magnetic nanoparticles mixed with NNV solution; value at 5 TCID50/ml NNV
# [2] = biological target: nervous necrosis virus (NNV) particles (nervous necrosis virus (from grouper)); assay: immunomagnetic reduction (IMR), logistic fit of IMR (%) against NNV concentration
# [3] = biological target: nervous necrosis virus (NNV) particles (nervous necrosis virus (from grouper)); assay: immunomagnetic reduction (IMR), anti-NNV magnetic nanoparticles mixed with NNV solution; value at 10^7 TCID50/ml NNV
substance,measurement,setting,value
"nervous necrosis virus antibody (anti-nervous necrosis virus), covalently bound to the dextran shell of Fe3O4 magnetic nanoparticles",IMR signal,[1],0.84%
same,"B (high-end value of the IMR signal, logistic fit)",[2],3.47%
same,φo (fitting parameter of the logistic function of IMR signal against NNV concentration),[2],26700 TCID50/ml
same,IMR signal,[3],3.04%
